Experimental data reported in US20190016822A1 (MEDITOPE BIOSCIENCES, published 2019).

B1: SnAP-body variant 1 (anti-CD33) (antibody, human IgG1, kappa)
heavy: not shown
light: QIVLTQSPAIMSASPGEKVTITCSASSSISYMHWFQQRTNGSPRLWIYTTSNLASGVPARFSGSGSGTSYSLTISRMEAEDEADYYCHQRSTYPLTFGAGTKLELKRTVAAPSVFIFPPSDEQLKSGTASVVCLLNNFYPREAKVQWKVDNALQSGNSQESVTEQDSKDSTYSLSSTLTLSKADYEKHKVYACEVTHQGLSSPVTKSFNRGEC
notes: also called self-crosslinking antibody; Anti-CD33 SnAP-body variant 1
B2: control antibody (meditope-enabled gemtuzumab IgG1 without meditope or linker) (antibody)
heavy: not shown
light: B1 light
notes: IgG1; also called control gemtuzumab antibody; gemtuzumab control antibody
B3: SnAP-body variant 3 (anti-CD33) (antibody, human IgG1, kappa)
heavy: not shown
light: B1 light
notes: also called self-crosslinking antibody
B4: SnAP-body variant 2 (anti-CD33) (antibody, human IgG1, kappa)
heavy: not shown
light: B1 light
notes: also called self-crosslinking antibody; Anti-CD33 SnAP-body variant 2

Experiments:
[1] = molecular target: the molecule itself; assay: size-exclusion chromatography; self-crosslinking
[2] = molecular target: the molecule itself; assay: size-exclusion chromatography; self-association

| Protein | binding result [1] | binding result [2] |
| --- | --- | --- |
| B1 | binds | – |
| B2 | – | no binding |
| B3 | binds | – |
| B4 | binds | – |
